Test results reported in US20250066831.

Assays:
[1] = test system: ELP-CVLS (protein substrate of the in vitro farnesylation reaction)
[2] = test system: V40 elastin-like polypeptide fused to CVLL
V40 elastin-like polypeptide fused to CVLL, sequence (chain, as listed by the source): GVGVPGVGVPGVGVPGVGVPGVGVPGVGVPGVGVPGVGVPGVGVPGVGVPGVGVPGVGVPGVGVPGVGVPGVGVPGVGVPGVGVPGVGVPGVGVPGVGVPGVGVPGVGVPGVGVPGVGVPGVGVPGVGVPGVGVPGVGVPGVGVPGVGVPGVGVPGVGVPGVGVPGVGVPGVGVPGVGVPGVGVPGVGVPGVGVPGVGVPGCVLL

Substance | in vitro farnesylation (3 µM ELP-CVLS, 0.2 µM FTase, 10 µM FPP, RP-HPLC) [1] | farnesylation on co-expression in E. coli (HPLC, MALDI-TOF MS, NMR of purified V40-Fr) [2]
farnesyltransferase (FTase) from Rattus norvegicus, heterodimer of alpha and beta subunits | In vitro farnesylation of ELPs with the soluble transferase (produced as a translationally coupled heterodimer) indicates that the recombinantly expressed enzyme is active | 
geranylgeranyl transferase type I (GGTase-I) from Rattus norvegicus, heterodimer of alpha and beta subunits |  | only one farnesyl group is added to the protein at the cysteine residue located in the C-terminal CaaX motif
